These results are taken from patent US20210388053A1.

Substitutions are numbered along the chain they refer to. Names and notes keep the numbering of the source. Values joined by “and” are separate entries in the source; they are usually repeats but may differ in a detail not shown here. Equal values may be shown once.

The target of assay [1] is canine FcRn/B2M protein complex (canine FcRn ECD with C-terminal poly-His tag and canine Beta-2-Microglobulin) (canine). Kind of assay: SPR Biacore T200, pH 6.0; biotinylated FcRn/B2M immobilized, Fc as analyte. (In SPR one partner is held on a chip, and binding of the other changes the refractive index at the surface.)
canine FcRn/B2M protein complex (canine FcRn ECD with C-terminal poly-His tag and canine Beta-2-Microglobulin) (canine), sequence (chain, as listed by the source limits assumed, form in doubt, chain 1 of 2): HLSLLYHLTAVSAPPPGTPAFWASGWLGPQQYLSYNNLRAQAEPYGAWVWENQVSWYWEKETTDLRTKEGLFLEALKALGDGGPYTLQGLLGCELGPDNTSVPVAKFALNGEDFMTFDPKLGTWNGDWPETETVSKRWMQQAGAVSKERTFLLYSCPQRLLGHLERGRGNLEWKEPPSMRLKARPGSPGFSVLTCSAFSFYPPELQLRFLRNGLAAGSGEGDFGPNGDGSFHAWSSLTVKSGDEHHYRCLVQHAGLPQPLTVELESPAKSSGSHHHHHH
canine FcRn/B2M protein complex (canine FcRn ECD with C-terminal poly-His tag and canine Beta-2-Microglobulin) (canine), sequence (b2m, as listed by the source limits assumed, form in doubt, chain 2 of 2): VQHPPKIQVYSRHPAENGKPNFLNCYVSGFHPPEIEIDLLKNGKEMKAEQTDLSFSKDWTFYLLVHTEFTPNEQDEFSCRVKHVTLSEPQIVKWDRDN
Assay [2] has the same target. The assay is described as follows: SPR Biacore T200 steady state, pH 6.0, 25 C; Fc on CM5 chip, FcRn/B2M 12.5-200 nM.
For assay [3] the target is unchanged. The assay is described as follows: SPR Biacore 8K, pH 6.0, 25 C; Fc captured by SASA tag on BSA chip, FcRn/B2M 400 nM as analyte.
Assay [4] has the same target. Kind of assay: SPR Biacore 8K, pH 6.0, 25 C; Fc captured by SASA tag on BSA chip, FcRn/B2M 400 nM as analyte; dissociation exceeded the detection limit.
The target is the same in assay [5]. The assay is described as follows: SPR Biacore T200, pH 6.0; biotinylated FcRn/B2M captured on streptavidin, antibody 2.5-160 nM as analyte, kinetic fit.
Assay [6] has the same target. Kind of assay: SPR Biacore T200, pH 6.0; biotinylated FcRn/B2M captured on streptavidin, antibody 18.75-1200 nM, steady state analysis.
The target is the same in assay [7]. The assay is described as follows: SPR Biacore T200, pH 6.0; biotinylated FcRn/B2M captured on streptavidin, antibody 12.5-800 nM, steady state analysis.
Assay [8] has the same target. The assay is described as follows: SPR Biacore T200, pH 6.0; biotinylated FcRn/B2M captured on streptavidin, antibody 1.5625-100 nM as analyte, kinetic fit.

What is called koff is the first-order rate constant of dissociation. Read a high koff as a short-lived complex. The Kd is the equilibrium constant for the complex coming apart. As usually defined, the kon is a measure of how fast the partners come together. Lower therefore signals slow association.

B1: variant canine IgG-B Fc polypeptide L(24)M (protein, not shown: small tags and cut ends)
chain: CPAPEMLGGPSVFIFPPKPKDTLMIARTPEVTCVVVDLDPEDPEVQISWFVDGKQMQTAKTQPREEQFNGTYRVVSVLPIGHQDWLKGKQFTCKVNNKALPSPIERTISKARGQAHQPSVYVLPPSREELSKNTVSLTCLIKDFFPPDIDVEWQSNGQQEPESKYRTTPPQLDEDGSYFLYSKLSVDKSRWQRGDTFICAVMHEALHNHYTQESLSHSPGK
With B1, in assay [1], the dissociation rate constant (koff) was found to be 0.126 s⁻¹. Also, the Kd in assay [2] amounted to 406 nM.

B2: variant canine IgG-B Fc polypeptide 0YF (Gln83Tyr, Asn208Phe) (protein, not shown: small tags and cut ends)
chain: B1 chain with M24L, Q83Y, N208F
In the case of B2, in assay [3], the dissociation constant Kd was 3.1 nM, the koff is 0.00118 s⁻¹ and the kon is 380000 M⁻¹ s⁻¹.

B3: variant canine IgG-B Fc polypeptide L(24)Y (protein, not shown: small tags and cut ends)
chain: B1 chain with M24Y
Turning to B3, the koff in assay [1] was 0.0138 s⁻¹. The molecule further showed a Kd in assay [2] of 113 nM.

B4: variant canine IgG-B Fc polypeptide YYR (Leu24Tyr, Gln83Tyr, Asn208Arg) (protein, not shown: small tags and cut ends)
chain: B1 chain with M24Y, Q83Y, N208R
In assay [3], B4 displayed a dissociation constant Kd of 1.84 nM, a koff of 0.000638 s⁻¹ and a kon of 347000 M⁻¹ s⁻¹.

B5: variant canine IgG-B Fc polypeptide 0YW (Gln83Tyr, Asn208Trp) (protein, not shown: small tags and cut ends)
chain: B1 chain with M24L, Q83Y, N208W
Regarding B5, in assay [3], the dissociation constant (Kd) stood at 6.1 nM, the dissociation rate constant (koff) was found to be 0.00213 s⁻¹ and the kon was 348000 M⁻¹ s⁻¹.

B6: variant canine IgG-B Fc polypeptide 0YY (Gln83Tyr, Asn208Tyr) (protein, not shown: small tags and cut ends)
chain: B1 chain with M24L, Q83Y, N208Y
In assay [3], B6 returned a Kd of 2.03 nM, a koff of 0.00086 s⁻¹ and a kon of 425000 M⁻¹ s⁻¹.

B7: variant canine IgG-B Fc polypeptide L(24)S (protein, not shown: small tags and cut ends)
chain: B1 chain with M24S
Molecule B7 came in with a koff in assay [1] of 0.241 s⁻¹.

B8: variant canine IgG-B Fc polypeptide Y0F (Leu24Tyr, Asn208Phe) (protein, not shown: small tags and cut ends)
chain: B1 chain with M24Y, N208F
B8: in assay [3], the Kd came out at 0.787 nM, the koff worked out at 0.000221 s⁻¹ and the kon worked out at 281000 M⁻¹ s⁻¹.

B9: variant canine IgG-B Fc polypeptide YYF (Leu24Tyr, Gln83Tyr, Asn208Phe) (protein, not shown: small tags and cut ends)
chain: B1 chain with M24Y, Q83Y, N208F
In assay [4], B9 gave a Kd of 0.602 pM and an off-rate constant (koff) of 1.63e-07 s⁻¹. This molecule returned a kon in assay [3] of 271000 M⁻¹ s⁻¹.

B10: variant canine IgG-B Fc polypeptide 0YR (Gln83Tyr, Asn208Arg) (protein, not shown: small tags and cut ends)
chain: B1 chain with M24L, Q83Y, N208R
In assay [3], B10 yielded a Kd of 9.45 nM, a koff of 0.00655 s⁻¹ and a kon of 693000 M⁻¹ s⁻¹.

B11: YTE variant canine IgG-B Fc polypeptide (Leu24Tyr, Ala26Thr, Thr28Glu) (protein, not shown: small tags and cut ends)
chain: B1 chain with M24Y, A26T, T28E
As to B11, the dissociation constant Kd in assay [2] turned out to be 86.2 nM. In assay [3], this molecule had a Kd of 31 nM, a dissociation rate constant (koff) of 0.0205 s⁻¹ and an on-rate (kon) of 662000 M⁻¹ s⁻¹.

B12: variant canine IgG-B Fc polypeptide YYH (Leu24Tyr, Gln83Tyr, Asn208His) (protein, not shown: small tags and cut ends)
chain: B1 chain with M24Y, Q83Y, N208H
In assay [3], B12 showed a Kd of 1.7 nM, a koff of 0.000612 s⁻¹ and an on-rate constant (kon) of 360000 M⁻¹ s⁻¹.

B13: variant canine IgG-B Fc polypeptide Y0R (Leu24Tyr, Asn208Arg) (protein, not shown: small tags and cut ends)
chain: B1 chain with M24Y, N208R
In assay [3], B13 returned a Kd of 8.64 nM, a koff of 0.00295 s⁻¹ and a kon of 341000 M⁻¹ s⁻¹.

B14: variant canine IgG-B Fc polypeptide Y0H (Leu24Tyr, Asn208His) (protein, not shown: small tags and cut ends)
chain: B1 chain with M24Y, N208H
In assay [3], B14 yielded a Kd of 8.11 nM, a koff of 0.00271 s⁻¹ and a kon of 334000 M⁻¹ s⁻¹.

B15: wild-type canine IgG-B Fc polypeptide (protein, not shown: small tags and cut ends)
chain: B1 chain with M24L
Regarding B15, the off-rate (koff) in assay [1] was 0.122 s⁻¹. In assay [2], this molecule gave a Kd of 1250 nM. In assay [3], this molecule showed a Kd of 102 nM, a koff of 0.0856 s⁻¹ and a kon of 838000 M⁻¹ s⁻¹.

B16: variant canine IgG-B Fc polypeptide Y0Y (Leu24Tyr, Asn208Tyr) (protein, not shown: small tags and cut ends)
chain: B1 chain with M24Y, N208Y
In the case of B16, in assay [3], the Kd was 0.49 nM, the koff is 0.00014 s⁻¹ and the kon came out at 286000 M⁻¹ s⁻¹.

B17: variant canine IgG-B Fc polypeptide Y0W (Leu24Tyr, Asn208Trp) (protein, not shown: small tags and cut ends)
chain: B1 chain with M24Y, N208W
B17: in assay [3], the Kd was determined as 3.72 nM, the koff was 0.000929 s⁻¹ and the kon was determined as 250000 M⁻¹ s⁻¹.

B18: variant canine IgG-B Fc polypeptide YYW (Leu24Tyr, Gln83Tyr, Asn208Trp) (protein, not shown: small tags and cut ends)
chain: B1 chain with M24Y, Q83Y, N208W
In assay [3], B18 yielded a Kd of 1.93 nM, a koff of 0.000496 s⁻¹ and a kon of 256000 M⁻¹ s⁻¹.

B19: variant canine IgG-B Fc polypeptide YYY (Leu24Tyr, Gln83Tyr, Asn208Tyr) (protein, not shown: small tags and cut ends)
chain: B1 chain with M24Y, Q83Y, N208Y
B19: in assay [4], the Kd is 0.713 pM and the koff was 1.87e-07 s⁻¹. Further, in assay [3], the on-rate (kon) came to 262000 M⁻¹ s⁻¹.

B20: variant canine IgG-B Fc polypeptide L(24)F (protein, not shown: small tags and cut ends)
chain: B1 chain with M24F
Consider B20, for which the koff in assay [1] is 0.0631 s⁻¹ and 0.0847 s⁻¹. In assay [2], this molecule came in with a Kd of 367 nM.

B21: variant canine IgG-B Fc polypeptide 0YH (Gln83Tyr, Asn208His) (protein, not shown: small tags and cut ends)
chain: B1 chain with M24L, Q83Y, N208H
In assay [3], B21 showed a Kd of 11.8 nM, an off-rate constant (koff) of 0.00791 s⁻¹ and a kon of 673000 M⁻¹ s⁻¹.

B22: caninized anti-canine IL31 clone M14 antibody with Y0Y variant canine IgG-B Fc polypeptide (antibody)
heavy: EVQLVESGPSLVKPGGSLRLTCSVTGDSITSGYWNWIRKFPGNKLEYMGYISYSGITDYNPSLKSRITISRDTSKNQYYLQLNSVTTEDTATYYCARYGNYGYAMDYWGQGTLVTVSSASTTAPSVFPLAPSCGSTSGSTVALACLVSGYFPEPVTVSWNSGSLTSGVHTFPSVLQSSGLYSLSSMVTVPSSRWPSETFTCNVAHPASKTKVDKPVPKRENGRVPRPPDCPKCPAPEMLGGPSVFIFPPKPKDTLYIARTPEVTCVVVDLDPEDPEVQISWFVDGKQMQTAKTQPREEQFNGTYRVVSVLPIGHQDWLKGKQFTCKVNNKALPSPIERTISKARGQAHQPSVYVLPPSREELSKNTVSLTCLIKDFFPPDIDVEWQSNGQQEPESKYRTTPPQLDEDGSYFLYSKLSVDKSRWQRGDTFICAVMHEALHYHYTQESLSHSPGK
light: DIVMTQSPASLSVSLGQRATISCRASESVDTYGNSFMHWYQQKPGQSPKLLIYRASNLESGIPARFGGSGSGTDFTLTIDPVQADDVATYYCQQSYEDPWTFGGGTKLEIKRNDAQPAVYLFQPSPDQLHTGSASVVCLLNSFYPKDINVKWKVDGVIQDTGIQESVTEQDKDSTYSLSSTLTMSSTEYLSHELYSCEITHKSLPSTLIKSFQRSECQRVD
In assay [5], B22 had a Kd of 15.6 nM, an off-rate (koff) of 0.00262 s⁻¹ and a kon of 168000 M⁻¹ s⁻¹.

B23: caninized anti-canine IL31 clone M14 antibody with wild-type canine IgG-B Fc polypeptide (antibody)
heavy: B22 heavy with Y256L, Y440N
light: B22 light
Turning to B23, the Kd in assay [6] came out at 410 nM.

B24: caninized anti-canine IL31 clone M14 antibody with YTE variant canine IgG-B Fc polypeptide (antibody)
heavy: B22 heavy with A258T, T260E, Y440N
light: B22 light
The molecule B24 yielded a Kd in assay [7] of 231 nM.

B25: caninized anti-canine IL31 clone M14 antibody with YYY variant canine IgG-B Fc polypeptide (antibody)
heavy: B22 heavy with Q315Y
light: B22 light
In assay [8], B25 displayed a Kd of 3.84 nM, a koff of 0.000869 s⁻¹ and a kon of 227000 M⁻¹ s⁻¹.
